B1: human CEACAM1 IgV domain, wildtype [human] / itself (parent)
chain: AQLTTESMPFNVAEGKEVLLLVHNLPQQLFGYSWYKGERVDGNRQIVGYAIGTQQATPGPANSGRETIYPNASLLIQNVTQNDTGFYTLQVIKSDLVNEEATGQFHVY

Variants of: B1
Test: SEC-MALS
Conditions: with itself; 100 μM protein; read off a plot

| screen value [Daltons] | Variant |
| --- | --- |
| 19000 | chain 1 V40A |
| 15000 | chain 1 I92A |
| 15000 | chain 1 E100A |

From publication PMC7979749, “Structural basis of the dynamic human CEACAM1 monomer-dimer equilibrium” (Communications Biology, 2021)
